From the DeepSol protein solubility set come the findings set out here.

This data set is described as follows: soluble on expression in E. coli; label from the status in PepcDB or PDB records.
With “MGSDKIHHHHHHMSTAIRYLRLYLHRPAAQGGGRRGIGYLSQYGDILRVSFDEDYIADPQRPTLSLSYRGANEADTQRILRSARDARLVRTDGRWPAYFQNLLPEGHNRDRLARERGCAPDDEFELLAAAGHDLMGALEVEPVPAQEGVPDVVRYWHTTQGLDVLEPGFVEYPVEDAASLPGVVTKFSAVQDGRRYLVKRRGAAGSVILKLPTTAHPDLVANEFTCYQLAGSLGLHCAQARIITRAEAELPEAVPLDDILAVQRFDHLADGTRVHMEEFNQALGYAPRQKYGKGLLQDWATMLRVVDRLSDQPVQDTREFLARMVAFILMGNTDAHLKNWALVYPDGHTPRLAPLYDPVCVAAFFEGATEHQYAVNRAIDRSMRALDWDALQALIKTAGLLRIPRHLALLRDLVRRAQADWPALLADAPSTLQRTVQARLAGGVALTHP”, the “soluble on expression in E. coli” value is given as “not soluble”.
Consider “AVKGLGKPDQVYDGSKIRVGIIHARWNRVIIDALVKGAIERMASLGVEENNIIIETVPGSYELPWGTKRFVDRQAKLGKPLDVVIPIGVLIKGSTMHFEYISDSTTHALMNLQEKVDMPVIFGLLTCMTEEQALARAGIDEAHSMHNHGEDWGAAAVEMAVKFGKNAF”, for which the “soluble on expression in E. coli” value is “soluble”.
As for “MMKSIILIVLDGLGDRPGSDLQNRTPLQAAFRPNLNWLASHGINGIMHPISPGIRCGSDTSHMSLLGYDPKVYYPGRGPFEALGLGMDIRPGDLAFRANFATNRDGVIVDRRAGRENKGNEELADAISLDMGEYSFRVKSGVEHRAALVVSGPDLSDMIGDSDPHREGLPPEKIRPTDPSGDRTAEVMNAYLEEARRILSDHRVNKERVKNGRLPGNELLVRSAGKVPAIPSFTEKNRMKGACVVGSPWLKGLCRLLRMDVFDVPGATGTVGSNYRGKIEKAVDLTSSHDFVLVNIKATDVAGHDGNYPLKRDVIEDIDRAMEPLKSIGDHAVICVTGDHSTPCSFKDHSGDPVPIVFYTDGVMNDGVHLFDELSSASGSLRITSYNVMDILMQLAGRSDKFGSLEHHHHHH”, the “soluble on expression in E. coli” value is given as “soluble”.
Consider “MSLTRCVLEGMKTKHALRHHMKLHKGIKEYECKECHRRFAQKVNMLKHCKRHTGIKDFMCELCGKTFSERNTMETHKLIHTVGKQWTCSVCDKKYVTEYMLQKHVQLTHDKVEAQSCQLCGTKVSTRASMSRHMRRKHPEVLAVRIDEGHHHHHH”, for which the “soluble on expression in E. coli” value is listed as “not soluble”.
Under “MSLVVFLLLKSQFLYGEDFKLRKGTLIIEEGIIKGFTDEHNEREVIEFKGLVIPSLINAHTHIADNSIKDIGINKTLDELVKPPNGLKHRYLTECSDDLLAEGMKLGLGDMREHGIKYFCDFRENGVRGISLLNKALKCYDYPKAIILGRPIKVDKDEIEEVLKVSNGLGLSGANEFKDDELKLIFKIFKKFKEKDDKKLFAIHAAEHRGAVEYSLNKYGMTEVERLIDLKIKPDFIVHGTHLTDNDLELLKENNIPVVACVRANLSFNVGMPKLNELNDNLLVGIGTDNFMANSPSIFKEMDFIYKLYHIEPKDILRMATINNAKILKLENVGLVDEGFKAVFTFIKPTNAILFSKNIIASVVTRCEKGDVVDFSLMENEEEGHHHHHH” stands “soluble”.
In the case of “MHRVHGTLHASFTIECRNMFKRFFLALIGVGILLSESTQASESPPYSMVLLTENFPPFNMAVDGKNFAQENNIDGIAAEVVREMFKRANIGYSMTLRFPWDRVYKLALDKPGYGVFSTTRLPEREKLFKWIGPLGSYDWIMLARGDSPITLASLEQAKDYRIGAYKGDAIGERLNAMGLNPILMLRDRDNVKKLANGQIDLWAVGDPVGRYLAKLEGVSGFKTALRFNSAELYLAVNKSTPDEIVNRLQAALDQMRTEGWVDAVKARYQLEHHHHHH” it was “soluble”; in that of “MKRRRLLQSLLAGLALQPFLAASANVRIRQARAWNSSESWRLVLELDGPPRYRTFSLQAPERLILDLPDAQLLATLSELPLDGPVRAIRSGQLGGGGTRIVLDLRQAVRPRSFALEPQAGKGHRLVLDLYPQALAAPPEPMLALARPLPSTGRDILVVVDAGHGGKDPGAVGSKGEREKDVALAIARLLARRIDREKGFKARLVRNGDVFVPLRKRPEVARRYNADMFVSVHADAAPRLTASGASVYALSEHGASSTMARWMAERENGADLIGNSGNLPLQGRDKVLAGVILDMALSSTIASSLDLGHSVLGQLSDVTALHQKRVEQAGFAVLKSPDIPSILVETGFISNRGDCRRLMDERHRQRLAEAIFAGVQGYFRQRPPAGSYLAALSAQPPG”, “not soluble”.
Take “MEIKLQGKVSLVTGSTRGIGRAIAEKLASAGSTVIITGTSGERAKAVAEEIANKYGVKAHGVEMNLLSEESINKAFEEIYNLVDGIDILVNNAGITRDKLFLRMSLLDWEEVLKVNLTGTFLVTQNSLRKMIKQRWGRIVNISSVVGFTGNVGQVNYSTTKAGLIGFTKSLAKELAPRNVLVNAVAPGFIETDMTAVLSEEIKQKYKEQIPLGRFGSPEEVANVVLFLCSELASYITGEVIHVNGGMF”: the “soluble on expression in E. coli” value is given as “soluble”.
With “VLGVTPDTEVVKPTRTQAERTAAMRTKLLDAAVDSLVELGYARTTTQGIARRAGVSRGAQLHHFPTKESLVVAAVEHLVDKRMEEILAADVDAGRGVDVLADAFSGPLFYAALELWVAARTDPALYEATVPLERKVNDALRRGSAEVFGDRFDADTIELSIELVRGLAVSALFRTPEAEQSLRARLLPVWESKVEKS”, the “soluble on expression in E. coli” value was “not soluble”.
Under “VDSVYRTRSLGVAAEGIPDQYADGEAARVWQLYIGDTRSRTAEYKAWLLGLLRQHGCHRVLDVACGTGVDSIMLVEEGFSVTSVDASDKMLKYALKERWNRRKEPAFDKWVIEEANWLTLDKDVPAGDGFDAVICLGNSFAHLPDSKGDQSEHRLALKNIASMVRPGGLLVIDHRNYDYILSTGCAPPGKNIYYKSDLTKDITTSVLTVNNKAHMVTLDYTVQVPGAGRDGAPGFSKFRLSYYPHCLASFTELVQEAFGGRCQHSVLGDFKPYRPGQAYVPCYFIHVLKKTG” stands “soluble”; under “MSLKKMSIKVPGKLFFAGEYSVTKEGNLALITTIETNFEVRISATTGKSIFKTNVGLSDFEFSLSKIEFTKENPWNFALTALKNTLSAADSFEKKSVSKILSSSPEISLEIVSDLGFGENKKGYGSSASVVCGLVNAVNQFFDFQLSLEKRFEIAAKTHFEVQGSGSMGDIAAIMYGGSVFYQNHKRVIPLEIPWATYVVQTGKAAKTSEKIKIKLSDEFYQASNELVIELATAIDIQDFALFKEKLSENQLLLLENIPEGYMTKELAIALNLLNSYPEFAAKISGAGFGENIILFAQNTQAIAEVQNKLSEYGINLEKFKVAQKNNEGHHHHHH”, “soluble”; under “MTDKKTTEKKETETAATFTEELTAVLEEIKEEPVKEKKKGEIVTIVNETDIQIGEREYRIVKNHRDAFDPERLGERFSEVLARYDYIVGDWGYEQLRLRGFFDTSNRRAAPDQRIDTLEDYLYEYCNFGCAYFVIERTGERKEKTTHRRRRHKKNNRSNAFVEEKSAPANKNSKPVIRTRKEENKKTTTPKQPSPKKSGKGFTIRQREELEHHHHHH”, “soluble”.
Under “MIYSMTAYARKEVKGDWGSAVWEIRSVNQRYLETYFRLPEQFRGLEPLLRERFRQRLSRGKIECHLRFEANPAAQSHLTINEGLAQQVINAANQIMHMTGELSRINPFQVMQWPGVMETPEQDMDAINQALLSAFDEGVDEFIAARGREGDNMKALIEQRLQAISAEVVKVRARMPEILEWQRERLFSKFEEAKIELDASRVEQELILLAQKSDVAEELDRLDSHVKEAREVLKKGGSCGRKLDFMMQEFNRESNTLASKSISTDITASGVELKVLIEQMREQIQNIE” stands “not soluble”.
